The record followed here is patent US20040175804A1, “Process for preparing dideoxyinosine using adenosine deaminase enzyme” (priority 2003, published 2004).

A short description of data set [1]: ADA activity assay (1 U = 1 μmol of ddA deaminated/min at 37° C.). The class given is biochemical. The settings on record: 1 unit = 1 μmol of ddA deaminated/min at 37° C.; on IPS-400 support. Here is the method:
The enzyme so derived should be assayed for activity. As used herein, a unit (U) of enzymatic activity is that amount of enzyme which will deaminate 1 μmol of ddA per minute at 37° C. Desirably, the final enzyme titer is from about 650-750 U/ml. The assay may be performed by adding enzyme to a 2.4% solution of ddA at 37° C. The reaction is allowed to proceed for 15 min while gently stirring. Tetrahydrofuran is added to stop the reaction. A sample is taken and run on HPLC to determine the amount of ddI formed.
The immobilized enzyme assays show an enzymatic activity of ˜100 U/g. (1 unit=1 μmol of ddA deaminated/min at 37° C.).

The nature of data set [2]: Conversion of a 52-60 g/L solution of ddA in water to ddI by adenosine deaminase. Type of data set: biochemical. The settings on record: for Conversion of ddA to ddI: 40 U/g ddA, 52-60 g/L ddA in water. Here is the method: 100.0 g ddA is added to 1900 ml of water at 30° C. (mother liquor from previous runs can also be used). After the ddA has been added (complete dissolution is not necessary), 4000 U of immobilized rec human adenosine deaminase is added. […] The reaction is complete (approximately 5-8 hours) when the level of residual ddA is less than or equal to 1% of the original amount of ddA added. The enzyme solids are removed by filtration (20-30 μm media) and the enzyme cake is washed with 100 ml water. The used enzyme is held as a wet cake at 0-5° C. (for up to 72 hours) and can be recycled to another batch.
Microbial ADA from recombinant E. coli was partially purified and isolated as an ammonium sulfate suspension. E. coli fermentation broth (42 U ADA/mL, 2 L) was centrifuged and the cell pellet was collected and washed with 1 L 100 mM phosphate buffer pH 7.5. The cells were again centrifuged and resuspended in 2 L of the above buffer plus 20% glycerol. The cells were passed once through a microfluidizer. Cell debris was removed by centrifugation and the resulting supernatant was concentrated by ultrafiltration through a 30,000 MWCO cassette. The enzyme was concentrated to a final titer of 390 U/ml. Ammonium sulfate was added to a 50% saturation, the resulting precipitate was collected by centrifugation and re-suspended in 100 ml deionized water. The final titer of the slurry was 740 U/ml; the protein content of the slurry was ˜75 mg/ml.

B1: Recombinant human immobilized ADA: Human adenosine deaminase (SEQ ID NO: 1) expressed in E. coli, immobilized on glutaraldehyde-activated IPS-400 support (protein, listed as Homo sapiens)
chain: MAQTPAFDKPKVELHVHLDGSIKPETILYYGRRRGIALPANTAEGLLNVIGMDKPLTLPDFLAKFDYYMPAIAGCREAIKRIAYEFVEMKAKEGVVYVEVRYSPHLLANSKVEPIPWNQAEGDLTPDEVVALVGQGLQEGERDFGVKARSILCCMRHQPNWSPKVVELCKKYQQQTVVAIDLAGDETIPGSSLLPGHVQAYQEAVKSGIHRTVHAGEVGSAEVVKEAVDILKTERLGHGYHTLEDQALYNRLRQENMHFEICPWSSYLTGAWKPDTEHAVIRLKNDQANYSLNTDDPLIFKSTLDTDYQMTKRDMGFTEEEFKRLNINAAKSSFLPEDEKRELLDLLYKAYGMPPSASAGQNL
modifications: immobilized on glutaraldehyde-activated IPS-400 support; (1)..(363) gi 14043373
On to B1, for which the “Enzymatic activity of immobilized enzyme” value in data set [1] is given as ~100 U/g. Moreover, the “Conversion of ddA to ddI” value in data set [2] (30 °C, 4.5 hours) was determined as 100%; in data set [2] (40 °C, 1.5 hours), 100%. For the same molecule, in data set [2] (compared with microbial enzymes), the “Stability of the enzyme in the ddA to ddI reaction” value was “significantly more stable than microbial enzymes”.
